To fix the notation:
B1: G001_gp1_V08_VRC01c_2021-0069 (antibody, V domains shown)
VH: QVQLVQSGAEVKKPGASVKVSCKASGYTFTDYYIHWVRQAPGQGLEWMGWINPNSGGTNYAQKFQDWVTMTRDTSVGTAYMELSRLRSDDTAVYYCARGIWSSWHFDVWGRGTLVTVPS
VL: DIQVTQSPSTLSASVGDRVTITCRASQSISNSLAWYQQKPGKAPNLLIYKASILESGVPSRFSGSGSGTEFTLTISSLQPDDFATYYCQQYETFGQGTKVEVT
B2: G001_gp1_V10_VRC01c_162 (antibody, V domains shown)
VH: QVQLVQSGAEVKNPGASVKVSCKASGYTFSGYYMHWVRQAPGQGLEWMGWINPNSGGTNYAQKFQGRVTMTRDTSISTAYMALSRLRSDDTAVYYCARPAPYDSSGYNWGYWGQGTLVTVSS
VL: B1 VL with V4M, I29M, S30N, S32W, N45K, I53T, T103K
B3: G001_gp1_V08_VRC01c_2021-0076 (antibody, V domains shown)
VH: QVQLVQSGAEVKKPGASVKVSCKASGYTFTDYYIHWVRQAPGQGLEWMGWINPNSGGTNYARKFQGRVTMTRATSISTVYMELSRLRSDDTAVYYCARGYCTVGWCFDLWGRDTLVTVSS
VL: B1 VL with V4M, S30G, S32W, K42R, N45K, K50Q, I53S, L54S, V102I, T103K
B4: G001_gp1_V10_VRC01c_173 (antibody, V domains shown)
VH: QVQLVQSGADVKKPGASVKVSCKASGYTLTGYYMHWVRQAPGQGLEWMGWINANSGGTNYAQKFQGRVTMTRDTSISTVYMELSRLRSDDTAVYYCAHRAGYCSGGGCSWYFDLWGRGTLVTVSS
VL: B1 VL with V4M, I29S, N31G, S32W, N45K, I53S, T93A, V102I, T103K
B5: G001_gp1_V08_VRC01c_2021-0075 (antibody, V domains shown)
VH: QVQLVQSGAEVKKPGASVKVSCKASGYTFTDYYIHWVRQAPGQGLEWMGWINPNSGGPNYAQKFQDWVTMTRDTSISTAHMELSSLRSDDTAVYYCARGVAHTGFEFGYWGQGTLVTVSS
VL: B1 VL with V4M, N31S, S32W, N45K, I53T, S76N, V102I, T103K
B6: G001_gp1_V10_VRC01c_161 (antibody, V domains shown)
VH: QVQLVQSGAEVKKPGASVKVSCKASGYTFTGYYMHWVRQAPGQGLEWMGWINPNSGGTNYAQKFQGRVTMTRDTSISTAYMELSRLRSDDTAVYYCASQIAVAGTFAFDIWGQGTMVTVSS
VL: B1 VL with V4M, N31S, S32W, N45K, I53S, E92Y, V100L, V102I, T103K
B7: G001_gp1_V08_VRC01c_2021-0074 (antibody, V domains shown)
VH: QVQLVQSGAEVKKPGASVKVSCKASGYTFTDYYMHWVRQAPGQGLEWMGWINPNSGGTNYAQKFQGWVTMTRDTSVSTAYMELRRLRSDDTAVYYCASGRGSSGWALDYWGQGTLVTVSS
VL: DIQMTQSPSSLSASVGDRVTITCQASQDISNYLNWYQQKPGKAPKLLIYDASILETGVPSRFSGSGSGTEFTFTISSLQPEDIATYYCQQYEAFGQGTKLEIK
B8: G001_gp1_V10_VRC01c_168 (antibody, V domains shown)
VH: QVQLVQSGAEVKKPGASVKVSCKASGYTFTGYHIHWVRQAPGQGLEWMGWINPNSGGTNYARKFQGRVTMTRDTSISTAYMELSRLNSDDTAVYYCAFPLGIRTTGRSWYFDLWGRGTLVTVSS
VL: B7 VL with L46I, I53N, S63R, E70D, A93T, Q96G, L100V
B9: G001_gp1_V08_VRC01c_2021-0082 (antibody, V domains shown)
VH: QVQLVQSGTEVKKPGASVKVSCKASGYTFTGYYIHWVRQAPGQGLEWMGWINPNSGGTNYAQKFQGWVTMTRDTSISTAYMELRRLTSVDTAVYYCARARSGYSSGWYWAYWGQGTLVTVSS
VL: B7 VL with I53N, E70D, A93F, Q96G, L100V
B10: G001_gp1_V10_VRC01c_175 (antibody, V domains shown)
VH: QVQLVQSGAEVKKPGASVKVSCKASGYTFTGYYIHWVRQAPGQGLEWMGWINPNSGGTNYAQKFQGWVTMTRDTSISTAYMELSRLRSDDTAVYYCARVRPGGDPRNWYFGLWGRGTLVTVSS
VL: B7 VL with I53N, E70D, Y91W, E92D, A93T
B11: G001_gp1_V10_VRC01c_160 (antibody, V domains shown)
VH: QVQLVQSGAEVKKPGASMKVSCEASGYTFTDYYMHWVRQAPGQGLEWMGWINPNSGGTNYAQKFQGRVTMTRDTSISTAYMELSRLRSDDTAVYYCATSIRDYLSGKVWYLGLWGRGTLVTVSS
VL: B7 VL with I53N, E70D, S76T, A93T, L100V
B12: G001_gp1_V08_VRC01c_2021-0078 (antibody, V domains shown)
VH: QVQLVQSGAEVKKPGASVKVSCKASGYTFTGYYMHWVRQAPGQGLEWMGWINPNSGGTNFAQKFQGRVTMTRGTSITTTYMELSRLRSDDTAVYYCARVSQYRTGWYFGYWGQGTLVTVSS
VL: B7 VL with I53N, E70D, A93F, Q96G, L100V
B13: G001_gp1_V08_VRC01c_2021-0081 (antibody, V domains shown)
VH: QVQLVQSGAEVKKPGASVKVSCKASGYTFTDHYMHWVRQAPGQGLEWMGWINPNSGGTNYAQKFQGWVTMTRDTSVSTAYMEVRRLRSDDTAVYYCAIIHYRRSSWEFAYWGQGTLVTVSS
VL: B7 VL with I21V, Y32S, D50G, I53N, E70D, A84G, A93T, K103R
B14: G001_gp1_V08_VRC01c_2021-0077 (antibody, V domains shown)
VH: QVQLVQSGAEVKKPGASVKVSCKASGYTFTDYYMHWVRQASGQGLEWMGWINPNSGGTNYAQEFQGRVTMTRDTSISTAYMELSRLRYDDTAVYYCASGGYSRTWSFNIWGLGTMVTVSS
VL: B7 VL with N31T, S52T, I53N, E70D, A93T, K99R
B15: G001_gp1_V10_VRC01c_174 (antibody, V domains shown)
VH: QVQLVQSGAEVKKPGATVKVSCKASGYTLTDYYMHWVRQAPGQGLEWMGWMNPNSGGTNYGRKFQGRVTMTRDTSINTAYMELSRLRSDDTAVYFCARAREKWPFDYWGQGTLVTVSS
VL: B7 VL with S9A, L33V, Y49N, D50G, I53N, E70D, A93N, Q96P, L100V, E101D
B16: G001_gp1_V10_VRC01c_166 (antibody, V domains shown)
VH: not shown
VL: B7 VL with I53N, E70D, E92N, A93T
B17: G001_gp1_V10_VRC01c_159 (antibody, V domains shown)
VH: QVQLVQSGAEVKKPGASVKVSCKASGYTFADYYIHWVRQAPGQGLEWMGWINPNSGGTNYAQKFQGRVTMTRDTSITTAYMELSRLGSDDTAVYYCARAYYGDYGDYWGQGTLVTVSS
VL: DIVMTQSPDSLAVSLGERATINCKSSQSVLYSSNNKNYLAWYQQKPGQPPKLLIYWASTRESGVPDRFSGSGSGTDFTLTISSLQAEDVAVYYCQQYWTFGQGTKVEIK
B18: G001_gp1_V10_VRC01c_163 (antibody, V domains shown)
VH: not shown
VL: DIVMTQSPDSLAVSLGERATINCKSSQSVYYSSNKKNYLAWYQQKPGQPPKLLIYWTSTRESGVPDRFSGSGSGTDFTLTISSLQAEDVAVYYCQQYWTFGQGTKVEIK
B19: G001_gp1_V10_VRC01c_164 (antibody, V domains shown)
VH: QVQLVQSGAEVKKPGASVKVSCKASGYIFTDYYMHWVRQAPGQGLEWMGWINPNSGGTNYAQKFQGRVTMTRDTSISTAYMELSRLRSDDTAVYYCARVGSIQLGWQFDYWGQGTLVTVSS
VL: EIVMTQSPATLSVSPGERATLSCRASQSVSSNLAWYQQIPGQAPRLLIYGTSTRATGIPARFSGSGSGTEFTLTISSLQSEDFAVYYCQQYETFGQGTKLEIK
B20: G001_gp1_V08_VRC01c_2021-0072 (antibody, V domains shown)
VH: QVQLVQSGAEVKKPGASVKISCKASGYTFSGYYMHWVRQAPGQGLEWMGWINPNSGGTNYAQKFQDWVTMTRDTSISTVYMELSRLRSDDTAVYYCAREWCSGGTCYSGPTFDFWGQGTLVTVSS
VL: EIVLTQSPGTLSLSPGERATLSCRASQSVSSNYLAWYQQKSGQAPRLLIYGASSRATGIPDRFSGSGSGTDFTLTISRLEPEDFAVYYCQHYETFGQGTKVEIK
B21: G001_gp1_V10_VRC01c_171 (antibody, V domains shown)
VH: QVQLVQSGAEVKRPGASVKVSCKASGYTFTDYYIHWVRQAPGQGLEWMGWINPNSGGTNYARKFQGRVTMTRHTSIGTAYMELSRLRSDDTAVYYCARHIVAAGTWAFDIWGQGTMVTVSS
VL: B20 VL with N32S, S41P, S64R, H91Q
B22: G001_gp1_V08_VRC01c_2021-0073 (antibody, V domains shown)
VH: QVQLVQSGAEVKKPGASVKVSCKASGYTFTGYYMHWVRQAPGQGLEWMGWINPNSGGTNYAQKFQDWVTMTRDTSISTAYMELRRLRSDDTAVYYCARGMSAKWFDSWGQGTLVTVSS
VL: B20 VL with V29F, S31N, N32S, L34V, S41P, A44G, H91Q, T99I, V101L, K104T
B23: G001_gp1_V10_VRC01c_170 (antibody, V domains shown)
VH: QVQLVQSGAEVKKPGASVKVSCKASGYTFTDYYMHWVRQAPGQGLEWMGWINPNSGGTNYAQKFQDRVTMTRDTSISTGYMELRRLRSDDTAVYYCASHHLTSQGPWWFDPWGQGTLLTVSS
VL: B20 VL with N32S, A35V, S41P, S66R, P81S, Y88F, H91Q
B24: G001_gp1_V10_VRC01c_167 (antibody, V domains shown)
VH: QVQLVQSGAEVKKPGASVKVSCKASGYTFTGYYMHWVRQAPGQGLEWMGWINPNSGGTNYAQKFQGRVTMTRDTSITTAYMELTRLISDDTAVYYCASPASIPAAGSFAFDIWGQGTMVTVSS
VL: B20 VL with S30G, N32S, A35T, S41P, R78G, H91Q
B25: G001_gp1_V10_VRC01c_172 (antibody, V domains shown)
VH: QVQLVQSGAEVKKPGASVKVSCKASGYTFTGYYFYWVRQAPGQGLEWMGWINPNSGGTNSPQKFQGRVSMTRDTSISTAYMEVSSLRSDDTAVYYCARRFTSMGVALDYWGQGTLVTVSS
VL: B20 VL with N32S, Y33S, S41P, Y50F, A52T, H91Q, E93D, T94S, K100R, V101L
B26: G001_gp1_V10_VRC01c_169 (antibody, V domains shown)
VH: QVHLVQSGAEVKKPGASVKVSCKASGYTFTDDYIHWLRQAPGQGLEWMGWINPYSGGTNYAQKFQGRVTMTRDTSINTAYMELSRLRSDDTAVYYCARYQSTFYFDYWGQGTLVTVSS
VL: DFQMTQSPSTLSASVGDRVTITCRASQSLSSWLAWYQQKPGKAPKLLIYKASSLESGVPSRFSGSGSGTEFTLTISSLQPDDSATFYCQQYETFGQGTKLEIK

Positions count from the first letter of the chain named.

The target of this test is eOD-GT8 (engineered outer domain germline-targeting version 8), monomer (HIV-1 gp120 engineered outer domain, …).
As to B1, the binding result is on record as “binds”.

With B2, the binding result is on record as “binds”.

Regarding B3, the binding result is recorded as “binds”.

As to B4, the binding result was “binds”.

In the case of B5, the binding result is listed as “binds”.

Consider B6, for which the binding result is “binds”.

In the case of B7, the binding result is listed as “binds”.

Take B8: the binding result is recorded as “binds”.

B9: the binding result is recorded as “binds”.

In the case of B10, the binding result is recorded as “binds”.

As for B11, the binding result is on record as “binds”.

As for B12, the binding result was “binds”.

B13: the binding result is reported as “binds”.

B14: the binding result was “binds”.

Consider B15, for which the binding result was “binds”.

Consider B16, for which the binding result was “binds”.

For the molecule B17, the binding result is “binds”.

With B18, the binding result is “binds”.

Regarding B19, the binding result is “binds”.

Turning to B20, the binding result is given as “binds”.

For the molecule B21, the binding result was “binds”.

On to B22, for which the binding result is reported as “binds”.

As for B23, the binding result is “binds”.

For the molecule B24, the binding result is on record as “binds”.

Regarding B25, the binding result is “binds”.

As for B26, the binding result is recorded as “binds”.

The values above are taken from publication PMC12377726 (Proceedings of the National Academy of Sciences of the …, 2025).
